assay: yeast display, Sf9 membrane polyspecificity reagent, FACS + sequencing; frameworks hold sequencing errors
How it was run: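 Sorting gates, low and high (top ~1%), were placed on anti-HA fluorescence to track expression and on streptavidin fluorescence to track reagent binding. A clone's polyreactivity label is taken from the gate it came out of. The reagent was 10% biotinylated, detergent-solubilized Sf9 membrane, applied for 1 hour at 4 °C to galactose-induced yeast display cells.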

| Sequence | polyreactivity (PSR sort gate) |
| --- | --- |
| QVQLVESGGGLVQAGGSLRLSCAASGRTFPYNAMGWYRQAPGKERELVASITYNGGSTYYADSVKGRFTISRDNAKNTVYLQMISLKPEDTAVYYCAKLFRTYYATYNYWGQGTQVTVSS | high polyreactivity |
| QVQLVESGGGLVQAGGSLRLSCAASGRTFPYYAMGWYRQAPGKERELVAAINSGGITNYADSVKGRFTISRDNAKNTVYLQMNSLKPEDTAVYYCAAKTAFYRERGYWGQGTQVTVSS | low polyreactivity |
| QVQLVESGGGLVQAGGSLRLSCAASGRTFPYYAMGWYRQAPGKERELVAAITRGVRTHYADSVKGRFTISRDNAKYTVYLQMNSLKPEDTAVYYCAREDWGSYSDMDSWGQGTQVTVSS | low polyreactivity |
| QVQLVESGGGLVQAGGSLRLSCAASGRTFPYYAMGWYRQAPGKERELVARITSGSGTYYADSVKGRFTISRDNAKNTVYLQMNSLKPEDTAVYYCAAREPGVGYVGNYTGLVYWGQGTQVTVSS | low polyreactivity |
| QVQLVESGGGLVQAGGSLRLSCAASGRTFPYYTMGWYRQAPGKERELVAAITSGGSTYYADSVKGRFTISRDNAKNTVYLQMNSLKPEDTAVYYCNKDAYYWGQGTQVTVSS | low polyreactivity |
| QVQLVESGGGLVQAGGSLRLSCAASGRTFPYYVMGWYRQAPGKERELVAAISTTGGSTYYADSVKGRFTISRDNAKNTVYLQMNSLKPEDTAVYYCAARRLIRDNLGYDYWGQGTQVTVSS | high polyreactivity |
| QVQLVESGGGLVQAGGSLRLSCAASGRTFQEYAMGWYRQAPGKERELVADISDGGSTNYADSVKGRFTISRDNAKNTVYLQMYSLKPEDTAVYYCAADQYHGVGINFRSDYDYWGQGTQVTVSS | low polyreactivity |
| QVQLVESGGGLVQAGGSLRLSCAASGRTFQFYAMGWYRQAPGKERELVAAISSGGSTNYADSVKGRFTISRDNAKNTVYLEMNSLKPEDSAVYYCAKRPWYHADWWDDHWGQGTQVTVSS | high polyreactivity |
| QVQLVESGGGLVQAGGSLRLSCAASGRTFQFYVMGWYRQAPGKERELLASIRSGGSTNYADSVKGRFTISRDNAKNTVYLQMNSLKPEDTAVYYCNADAYGTPEFTSYAVRYDYWGQGTQVTVSS | low polyreactivity |
| QVQLVESGGGLVQAGGSLRLSCAASGRTFQGKAMGWYRQAPGKERELVAAISSSGGRTYYADSVKGRFTISRDNAKNTVYLQMNSLKPVDTSVYYCAARNYFWGQGTQVTVSS | low polyreactivity |
| QVQLVESGGGLVQAGGSLRLSCAASGRTFQGNAMGWYRQAPGKERELVAVIDSGTSTDYADSVKGRFTISRDNAKNTVYLQMNSLKPEDTAVYYCAADGALGYNLRYDYWGQGTQVTVSS | low polyreactivity |
| QVQLVESGGGLVQAGGSLRLSCAASGRTFQGYAMGWYRQAPGKERELVAAISYRGGSTYYADSVKGRFTISRDHAKPTVFLPMNSLKPEDTAVYYCAARWNRGRYDYWGQGTQVTVSS | high polyreactivity |
| QVQLVESGGGLVQAGGSLRLSCAASGRTFQLYAMGWYRQAPGKERDLVAAISARGGSTYYADSVKGRFTISRDNAKNTVYLQMNSLKPEDTAVYYCNADYNVVLSRVIYARGYWGQGTQVTVSS | high polyreactivity |
| QVQLVESGGGLVQAGGSLRLSCAASGRTFQQNAMGWYRQAPGKERELVAAINSRGGRTYYADSVKGRFTISRDTAKNTVYLQMNSLKPEDTAVYYCAARYYWGQGTQVTVSS | high polyreactivity |
| QVQLVESGGGLVQAGGSLRLSCAASGRTFQSNAMGWYRQAPGKERELVAAITNGGNTNYADSVKGRFTISRDNAKNTVYLQMNSLKPEDTAVYYCAADRLYVRYGYWGQGTQVTVSS | low polyreactivity |
| QVQLVESGGGLVQAGGSLRLSCAASGRTFQSNGMGWYRQAPGKERELVAAITWSSGTTYYADSVKGRFTISRDNAKNTVYLQMNSLKPEDTAVYYCAADWGHWNSLFYSGFGYWGQGTQVTVSS | low polyreactivity |
| QVQLVESGGGLVQAGGSLRLSCAASGRTFQYYAMGWYRQAPGKEREFVAAISRSGGSTYYADSVKGRFTISRDNAKNTVYLQMNSLKPEDTAVYYCAADAYRSSYDYWGQGTQVTVSS | low polyreactivity |
| QVQLVESGGGLVQAGGSLRLSCAASGRTFQYYAMGWYRQAPGKERELVAAISSRGGSTYYADSVKGRFTISRDNAKNTVYLQMNSLKPEDTAVYYCAAYVLPRQRVRSDYWGQGTQVTVSS | high polyreactivity |
| QVQLVESGGGLVQAGGSLRLSCAASGRTFQYYTMGWYRQAPGKEREFVAALRDSGGSTYYADSVKGRFTISRDNAKNTVYLQMNSLKPEDTAVYYCAAYRPRKYDYWGQGTQVTVSS | high polyreactivity |
| QVQLVESGGGLVQAGGSLRLSCAASGRTFRANAMGWYRQAPGKERELFAAISKRGGNTYYADSVKGRFTISRDNAKNTVYLQMNSLKPEDTAVYYCADDFICRDYDYWGQGTQVTVSS | high polyreactivity |
| QVQLVESGGGLVQAGGSLRLSCAASGRTFRANAMGWYRQAPGKERELVAAIRTGTRTYYADSVKGRFTISRDNAKNTVYLQMNSLKPEDTAVYYCNRRHYYPYDNYDAMYYWGQGTQVTVSS | high polyreactivity |
| QVQLVESGGGLVQAGGSLRLSCAASGRTFRANTMGWYRLAPGKERELVAAISHSGGSTYYADSVKGRFTISRDNAKNTVYLQMNSLKPEDTAVYYCATDGGSYSWASPRVDYWGQGTQVTVSS | low polyreactivity |

| Sequence | polyreactivity (PSR sort gate) |
| --- | --- |
| QVQLVESGGGLVQAGGSLRLSCAASGRTFRANTMGWYRQAPGKERELVAAITWSGASTYYADSVKGRFTISRDNAKNTVYLQMNSLKPEDTAVYYCNAGWDSGIVQSDETVYKYDYWGQGTQVTVSS | low polyreactivity |
| QVQLVESGGGLVQAGGSLRLSCAASGRTFRAYAMGWYRQAPGKERELVAAISSRGGSTYYADSVKGRFTISRDNAKNTVYLQMNSLKPEDTAVYYCNVDRYVRGLITFDYWGQGTQVTVSS | high polyreactivity |
| QVQLVESGGGLVQAGGSLRLSCAASGRTFRAYAMGWYRQAPGKERELVAGITSGGSTNYADSVKGRFTISRDNAKNTVYLQMNSLKPEDTAVYYCAARRGTYRYRYDYWGQGTQVTVSS | high polyreactivity |
| QVQLVESGGGLVQAGGSLRLSCAASGRTFRAYAMGWYRQAPGKERELVASISRGGSTKYADSVKGRFTISRDNAKNTVYLQMNSVKPEDTAVYYCAADRLRDGVDYWGQGTQVTVSS | low polyreactivity |
| QVQLVESGGGLVQAGGSLRLSCAASGRTFRAYTMGWYRQAPGKERELVAAISTPGGSTYYADSVKGRFTISRDNAKNTVYLQMNSLKPEDTAVYYCAADRYYWGQGTQVTVSS | low polyreactivity |
| QVQLVESGGGLVQAGGSLRLSCAASGRTFREYAMGWYRHAPGKEREFVAAISESVGSTYYADSVKGRFTISRDNAKNTVYLQMNSLKPEDTAVYYCAKQSRYPSLDADYDYWGQGTQVTVSS | low polyreactivity |
| QVQLVESGGGLVQAGGSLRLSCAASGRTFRFYAMGWYRPAPGKERELVAGITRSGGGTYYADSVKGRFTISRDNAKNTVYLQMNSLKPEDTAVYYCAATHAYLGYGYWGQGTQVTVSS | high polyreactivity |
| QVQLVESGGGLVQAGGSLRLSCAASGRTFRFYDMGWYRQAPGKERELVAAISRGGGSTYYADSVKGRFTISRDNAKNTVYLQMNSLKPEDTAVYYCAAKPYKTRSSYWGDYYWGQGTQVTVSS | high polyreactivity |
| QVQLVESGGGLVQAGGSLRLSCAASGRTFRGNALGWYRQAHGKERELVAAITGTGGSTYYADSVKGRFTISRDNAKNTVYLQRNRLKPEDTAVYYCAAVLRGHNGLKFEYWGQGTQVTVSS | high polyreactivity |
| QVQLVESGGGLVQAGGSLRLSCAASGRTFRGNAMGWYRQAPGKERELVAAIRWNGGSTYYADSVKGRFTISRDNAKNTVYLQMNSLKPEDTAVYYCAVLRLDYWGQGTQVTVSS | high polyreactivity |
| QVQLVESGGGLVQAGGSLRLSCAASGRTFRGYAMGWYRQAPGKERELVAAISVTGSSTNYADSVKGRFTISRDNAKNTVYLQMNSLKPEDTAVYYCAASYRLYKYDYWGQGTQVTVSS | high polyreactivity |
| QVQLVESGGGLVQAGGSLRLSCAASGRTFRGYAMGWYRQAPGKERELVAAISVTGSSTNYADSVKGRFTISRDNAKNTVYLQMNSLKPEDTAVYYCNAKRVRYSLSYDYWGQGTQVTVSS | high polyreactivity |
| QVQLVESGGGLVQAGGSLRLSCAASGRTFRGYAMGWYRQAPGKERELVAAITRSGGSTYADSVKGRFTISRDNAKNTFYLQMNSLKPEDTAVYYCAADRGYKYYYWGQGTQVTVSS | high polyreactivity |
| QVQLVESGGGLVQAGGSLRLSCAASGRTFRGYVMGWYRQAPGKEREFVAAITRSDGSTYYADSVKGRFTISRDNAKNTVYLQMNSLKPEDTAVYYCAADLRRFQSYYYWGQGTQVTVSS | high polyreactivity |
| QVQLVESGGGLVQAGGSLRLSCAASGRTFRGYVMGWYRQAPGKERELVAAISKSGGSTYYADSVKGRFTISRDNAKNTVYLQMNSLKPEDTAVYYCAKNYRYYVFYDGFDYWGQGTQVTVSS | low polyreactivity |
| QVQLVESGGGLVQAGGSLRLSCAASGRTFRHNAMGWYRQAPGKERELVAAISKSGGRTYYADSVKGRFTISRDNAKNTVYLQMNSLKPEDTAVYYCAAPLYVSTSGEVGYWGQGTQVTVSS | high polyreactivity |
| QVQLVESGGGLVQAGGSLRLSCAASGRTFRHNAMGWYRQAPGKERELVAAISSSGTNTHYADSVKGRFTISRDNAKNTVYLQMNSLKPEDTAVYYCATVVRSAAYAFDYWGQGTQVTVSS | high polyreactivity |
| QVQLVESGGGLVQAGGSLRLSCAASGRTFRINAMGWYRQAPGKERELVAAITSIAGNTYYADSVKGRFTISRDNAKNTVYLQMNSLKPEDTAVYYCAVDSVPWGFRGAYGLTRYYYWGQGTQVTVSS | low polyreactivity |
| QVQLVESGGGLVQAGGSLRLSCAASGRTFRINAMGWYRQAPGKERELVAAITYRGANTYYADSVKGRFTISRDNAKNTVYLQMNSLKPEDTAVYYCAAEYAYHHVGFGYWGQGTQVTVSS | low polyreactivity |
| QVQLVESGGGLVQAGGSLRLSCAASGRTFRIYAMGWYRPATGKEREMVATISGRGGNTYYADSVKGRFTISRDNAKNTVYLQMNSLKPDDTAVYYCNTVYLPNFQWFDYWGQGTQVTVSS | high polyreactivity |
| QVQLVESGGGLVQAGGSLRLSCAASGRTFRIYAMGWYRQAPGKEREFVAAITWSGGRTYYADSVKGRFTISRDNAKNTVYLQMNSLKPEDTAVYYCAADPTYLRTLRFGSYDYWGQGTQVTVSS | high polyreactivity |
